From article PMC12987686 (RSC pharmaceutics, 2025)
Peptide text beside a SMILES is read from it.

Assays:
[1] = cited from earlier work
[2] = test system: CD1 mice with myocardial infarction; conditions: mouse, in vivo
[3] = in vivo; conditions: CD1, mouse, iv, total radioactivity
[4] = test system: healthy CD1 mice; assay: in vivo; set-up: species or system mouse; conditions: mouse
[5] = in vivo; set-up: species or system mouse; conditions: CD1, mouse, iv, total radioactivity
[6] = test system: CD1 mice with myocardial infarction; assay: in vivo; set-up: species or system mouse; conditions: mouse
[7] = in vivo; set-up: species or system mouse; conditions: CD1, mouse, iv, total radioactivity; remark: listed apart in the source
[8] = Stability in the final formulation by analytical rad-HPLC; assay type: physicochemical; conditions: final formulation 10/30/60 v/v/v ethanol/1.0 M sodium acetate/saline, room temperature, mean ± SD, n = 4

Structure (SMILES): CC(C)(C)n1ncc(OCc2ccc(COCC[18F])cc2)c(Cl)c1=O [[^18F]F-flurpiridaz]
- first-pass extraction fraction [1]: 94%

Structure (SMILES): CC(C)C[C@H](NC(=O)[C@H](Cc1c[nH]cn1)NC(=O)[C@H](Cc1c[nH]c2ccccc12)NC(=O)[C@@H]1CCCN1C(=O)[C@H](C)NC(=O)CN1CCN(CC(=O)O)CCN(CC(=O)O)CC1)C(=O)N[C@@H](CO)C(=O)N[C@@H](CO)C(=O)N[C@@H](CCC(N)=O)C(=O)N[C@@H](Cc1ccc(O)cc1)C(=O)N[C@@H](CO)C(=O)N[C@@H](CCCNC(=N)N)C(=O)N[C@H](C(=O)O)[C@@H](C)O [[^68Ga]Ga-NOTA-CTP, metal not drawn] (HELM PEPTIDE1{[O=C(O)CN1CCN(CC(=O)O)CCN(CC(=O)[*:2])CC1].A.P.W.H.L.S.S.Q.Y.S.R.T}$$$$V2.0; N-terminus and C-terminus assumed)
- time of clearance from the blood [2]: ≤ 30 min
- SUV at 2 h ([3]; SUV Cecum): 2.36 ± 2.24 SUV
- SUV at 2 h ([3]; SUV Heart): 0.02 ± 0.006 SUV
- SUV at 2 h ([3]; SUV Lung): 0.04 ± 0.02 SUV
- SUV at 2 h ([3]; SUV Pancreas): 0.05 ± 0.06 SUV
- SUV in left ventricle (LV) vs right ventricle (RV) [4]: SUV in LV was lower than the RV
- time of clearance from the blood [4]: ≤ 30 min
- SUV at 1 h ([5]; 2.29 MBq, SUV heart): 0.04 ± 0.04 SUV
- SUV at 2 h ([5]; 2.29 MBq, SUV heart): 0.02 ± 0.01 SUV
- SUV ([5]; 2.29 MBq, SUV kidneys): 2.64 ± 0.89 SUV
- SUV at 1 h ([5]; 2.29 MBq, SUV kidneys): 0.92 ± 0.68 SUV
- SUV at 2 h ([5]; 2.29 MBq, SUV kidneys): 0.1 SUV
- SUV ([5]; 2.29 MBq, SUV liver): 1.42 ± 0.49 SUV
- SUV at 1 h ([5]; 2.29 MBq, SUV liver): 0.69 ± 0.32 SUV
- SUV at 2 h ([5]; 2.29 MBq, SUV liver): 0.14 SUV
- SUV ([5]; 2.29 MBq, SUV muscle): 0.36 ± 0.12 SUV
- SUV at 1 h ([5]; 2.29 MBq, SUV muscle): 0.18 ± 0.13 SUV
- SUV at 2 h ([5]; 2.29 MBq, SUV muscle): 0.19 ± 0.18 SUV
- SUV ([5]; 2.29 MBq, SUV urinary bladder): 7.51 ± 3.49 SUV
- SUV at 1 h ([5]; 2.29 MBq, SUV urinary bladder): 10.6 ± 6.1 SUV
- SUV at 2 h ([5]; SUV urinary bladder): 9.02 ± 8.59 SUV
- SUV Heart [6]: 0.03 ± 0.02
- SUV at 2 h ([7]; 2.29 MBq, SUV heart): 0.03 ± 0.02 SUV
- SUV at 2 h ([7]; SUV Cecum): 2.28 ± 3.64 SUV
- SUV at 2 h ([7]; SUV Lung): 0.04 ± 0.04 SUV
- SUV at 2 h ([7]; SUV Pancreas): 0.05 ± 0.04 SUV
- radiochemical purity in the formulation ([8]; 0 min post-synthesis): 98.78 ± 1.08%
- radiochemical purity in the formulation ([8]; 2 h post-synthesis): 92.52 ± 3.66%

Structure (SMILES): [15OH2] [^15O-water]
- first-pass extraction fraction [1]: ~ 100%

Structure (SMILES): [82Rb] [^82Rb]
- first-pass extraction fraction [1]: ~ 65%
